Laboratory results from patent US20230383265A1, “D-beta-HYDROXYBUTYRATE DEHYDROGENASES (BHBDhs) AND THEIR USE FOR KETONE MONITORING” (The University of North Carolina at Chapel Hill, priority 2022, published 2023).
Values belong to the molecule of their own block, whether it stands above or below them.

How the values were obtained:
[1] = target: T1, Thermus thermophilus BHBDh (TtBHBDh), wild type, SEQ ID NO: 3 (Thermus thermophilus, UniProt Q5SKF0); assay: BHB concentration-dependent BHBDh activity of TtBHBDh (NADH detection, absorbance at 340 nm); assay type: biochemical; details: 1 mM NAD+, 10 mM HEPES pH 7.8, 0 mM MgCl2, 0-50 mM BHB, room temperature; read-out: Km toward BHB
T1 sequence (Q5SKF0 1-251): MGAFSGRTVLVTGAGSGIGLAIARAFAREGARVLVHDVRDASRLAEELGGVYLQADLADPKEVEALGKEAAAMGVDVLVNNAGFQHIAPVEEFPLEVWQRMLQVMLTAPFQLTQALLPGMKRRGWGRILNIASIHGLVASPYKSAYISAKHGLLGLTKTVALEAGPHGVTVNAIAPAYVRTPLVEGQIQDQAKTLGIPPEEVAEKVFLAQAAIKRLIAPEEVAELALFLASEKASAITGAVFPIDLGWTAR
Procedure: The activity was measured using NADH detection via absorbance at 340 nm, at room temperature. The measurement was done in a solution with 1 mM NAD^+, 10 mM HEPES at pH 7.8, and 0 mM MgCl2·6 H2O, from 0-50 mM BHB.

[2] = substrate: C[C@@H](O)CC(=O)O; assay: NAD dependent BHB dehydrogenase activity of AfBHBDh; assay type: biochemical, Alcaligenes faecalis

Km [1]: 359 µM
Molecule: C[C@@H](O)CC(=O)O [BHB, R-3-hydroxybutyrate]

B1: (Alcaligenes faecalis) (protein)
chain: MLKGKKAVVTGSTSGIGLAMATELAKAGADVVINGFGQPEDIERERSTLESKFGVKAYYLNADLSDAQATRDFIAKAAEALGGLDILVNNAGIQHTAPIEEFPVDKWNAIIALNLSAVFHGTAAALPIMQKQGWGRIINIASAHGLVASVNKSAYVAAKHGVVGLTKVTALENAGKGITCNAICPGWVRTPLVEKQIEAISQQKGIDIEAAARELLAEKQPSLQFVTPEQLGGAAVFLSSAAADQMTGTTLSLDGGWTAR
Km [2]: 1.13 mM
Vmax [2]: 223 µmol/min/mg
